Data from US20190345228A1 (DUKE UNIVERSITY, published 2019).

Molecular target: TNF-related apoptosis-inducing ligand receptor 2 (TRAILR-2) (human, UniProt O14763 56-440)
Assay: cell-based or functional assay

Binder | EC50, cell viability assay on Colo205 cells (concentration required to kill 50% of the cells)
ELPa-(Tn3)4 (designed binder) VGVPGVGVPGVGVPGVGVPGVGVPGVGVPGVGVPGVGVPGVGVPGVGVPGVGVPGVGVPGVGVPGVGVPGVGVPGVGVPGVGVPGVGVPGVGVPGVGVPGVGVPGVGVPGVGVPGVGVPGVGVPGVGVPGVGVPGVGVPGVGVPGVGVPGVGVPGVGVPGVGVPGVGVPGVGVPGVGVPGVGVPGVGVPGVGVPGVGVPGVGVPGVGVPGVGVPGVGVPGVGVPGVGVPGVGVPGVGVPGVGVPGVGVPGVGVPGVGVPGVGVPGVGVPGVGVPGVGVPGVGVPGVGVPGVGVPGVGVPGVGVPGVGVPGVGVPGVGVPGVGVPGVGVPGVGVPGVGVPGVGVPGVGVPGVGVPGVGVPGVGVPGVGVPGVGVPGVGVPGVGVPGVGVPGVGVPGVGVPGVGVPGVGVPGVGVPGVGVPGVGVPGVGVPGVGVPGVGVPGVGVPGVGVPGVGVPGVGVPGVGVPGVGVPGVGVPGVGVPGVGVPGVGVPGVGVPGVGVPGVGVPGVGVPGVGVPGVGVPGVGVPGVGVPGVGVPGVGVPGVGVPGVGVPGVGVPGVGVPGVGVPGVGVPGVGVPGVGVPGVGVPGVGVPGVGVPGVGVPGGAIEVKDVTDTTALITWAKPWVDPPPLWGCELTYGIKDVPGDRTTIDLQQKHTAYSIGNLKPDTEYEVSLICFDPYGMRSKPAKETFTTGGGGSGGGGSGGGGSGAIEVKDVTDTTALITWAKPWVDPPPLWGCELTYGIKDVPGDRTTIDLQQKHTAYSIGNLKPDTEYEVSLICFDPYGMRSKPAKETFTTGGGGSGGGGSGGGGSGAIEVKDVTDTTALITWAKPWVDPPPLWGCELTYGIKDVPGDRTTIDLQQKHTAYSIGNLKPDTEYEVSLICFDPYGMRSKPAKETFTTGGGGSGGGGSGGGGSGAIEVKDVTDTTALITWAKPWVDPPPLWGCELTYGIKDVPGDRTTIDLQQKHTAYSIGNLKPDTEYEVSLICFDPYGMRSKPAKETFTTGGGGSGGGGSGGGGS | 0.08 nM
(Tn3)4 (designed binder) GAIEVKDVTDTTALITWAKPWVDPPPLWGCELTYGIKDVPGDRTTIDLQQKHTAYSIGNLKPDTEYEVSLICFDPYGMRSKPAKETFTTGGGGSGGGGSGGGGSGAIEVKDVTDTTALITWAKPWVDPPPLWGCELTYGIKDVPGDRTTIDLQQKHTAYSIGNLKPDTEYEVSLICFDPYGMRSKPAKETFTTGGGGSGGGGSGGGGSGAIEVKDVTDTTALITWAKPWVDPPPLWGCELTYGIKDVPGDRTTIDLQQKHTAYSIGNLKPDTEYEVSLICFDPYGMRSKPAKETFTTGGGGSGGGGSGGGGSGAIEVKDVTDTTALITWAKPWVDPPPLWGCELTYGIKDVPGDRTTIDLQQKHTAYSIGNLKPDTEYEVSLICFDPYGMRSKPAKETFTTGGGGSGGGGSGGGGS | 0.04 nM
ELPa-(Tn3)6 (designed binder) VGVPGVGVPGVGVPGVGVPGVGVPGVGVPGVGVPGVGVPGVGVPGVGVPGVGVPGVGVPGVGVPGVGVPGVGVPGVGVPGVGVPGVGVPGVGVPGVGVPGVGVPGVGVPGVGVPGVGVPGVGVPGVGVPGVGVPGVGVPGVGVPGVGVPGVGVPGVGVPGVGVPGVGVPGVGVPGVGVPGVGVPGVGVPGVGVPGVGVPGVGVPGVGVPGVGVPGVGVPGVGVPGVGVPGVGVPGVGVPGVGVPGVGVPGVGVPGVGVPGVGVPGVGVPGVGVPGVGVPGVGVPGVGVPGVGVPGVGVPGVGVPGVGVPGVGVPGVGVPGVGVPGVGVPGVGVPGVGVPGVGVPGVGVPGVGVPGVGVPGVGVPGVGVPGVGVPGVGVPGVGVPGVGVPGVGVPGVGVPGVGVPGVGVPGVGVPGVGVPGVGVPGVGVPGVGVPGVGVPGVGVPGVGVPGVGVPGVGVPGVGVPGVGVPGVGVPGVGVPGVGVPGVGVPGVGVPGVGVPGVGVPGVGVPGVGVPGVGVPGVGVPGVGVPGVGVPGVGVPGVGVPGVGVPGVGVPGVGVPGVGVPGVGVPGVGVPGVGVPGVGVPGVGVPGVGVPGVGVPGAIEVKDVTDTTALITWAKPWVDPPPLWGCELTYGIKDVPGDRTTIDLQQKHTAYSIGNLKPDTEYEVSLICFDPYGMRSKPAKETFTTGGGGSGGGGSGGGGSGAIEVKDVTDTTALITWAKPWVDPPPLWGCELTYGIKDVPGDRTTIDLQQKHTAYSIGNLKPDTEYEVSLICFDPYGMRSKPAKETFTTGGGGSGGGGSGGGGSGAIEVKDVTDTTALITWAKPWVDPPPLWGCELTYGIKDVPGDRTTIDLQQKHTAYSIGNLKPDTEYEVSLICFDPYGMRSKPAKETFTTGGGGSGGGGSGGGGSGAIEVKDVTDTTALITWAKPWVDPPPLWGCELTYGIKDVPGDRTTIDLQQKHTAYSIGNLKPDTEYEVSLICFDPYGMRSKPAKETFTTGGGGSGGGGSGGGGSGAIEVKDVTDTTALITWAKPWVDPPPLWGCELTYGIKDVPGDRTTIDLQQKHTAYSIGNLKPDTEYEVSLICFDPYGMRSKPAKETFTTGGGGSGGGGSGGGGSGAIEVKDVTDTTALITWAKPWVDPPPLWGCELTYGIKDVPGDRTTIDLQQKHTAYSIGNLKPDTEYEVSLICFDPYGMRSKPAKETFTTGGGGSGGGGSGGGGS | 0.00078 nM
(Tn3)6 (designed binder) GAIEVKDVTDTTALITWAKPWVDPPPLWGCELTYGIKDVPGDRTTIDLQQKHTAYSIGNLKPDTEYEVSLICFDPYGMRSKPAKETFTTGGGGSGGGGSGGGGSGAIEVKDVTDTTALITWAKPWVDPPPLWGCELTYGIKDVPGDRTTIDLQQKHTAYSIGNLKPDTEYEVSLICFDPYGMRSKPAKETFTTGGGGSGGGGSGGGGSGAIEVKDVTDTTALITWAKPWVDPPPLWGCELTYGIKDVPGDRTTIDLQQKHTAYSIGNLKPDTEYEVSLICFDPYGMRSKPAKETFTTGGGGSGGGGSGGGGSGAIEVKDVTDTTALITWAKPWVDPPPLWGCELTYGIKDVPGDRTTIDLQQKHTAYSIGNLKPDTEYEVSLICFDPYGMRSKPAKETFTTGGGGSGGGGSGGGGSGAIEVKDVTDTTALITWAKPWVDPPPLWGCELTYGIKDVPGDRTTIDLQQKHTAYSIGNLKPDTEYEVSLICFDPYGMRSKPAKETFTTGGGGSGGGGSGGGGSGAIEVKDVTDTTALITWAKPWVDPPPLWGCELTYGIKDVPGDRTTIDLQQKHTAYSIGNLKPDTEYEVSLICFDPYGMRSKPAKETFTTGGGGSGGGGSGGGGS | 0.0016 nM
